Laboratory results as given in US20090298167A1.

Molecular target: human IL-21 (human) (UniProt Q9HBE4)
Assay: cell-based or functional assay

Sequence of human IL-21 (human) (Q9HBE4 25-162 limits assumed): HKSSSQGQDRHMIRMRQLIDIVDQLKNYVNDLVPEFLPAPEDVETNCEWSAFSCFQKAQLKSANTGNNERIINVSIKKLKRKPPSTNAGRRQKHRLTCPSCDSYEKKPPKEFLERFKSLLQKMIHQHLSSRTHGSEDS

## human IL-21R-Fc (from UniProt Q9HBE5 20-232) (Fc fusion)
  Human IL-21R-BaF3 Neutralization IC50: 0.2 nM
